The assay has as its target CH848TF gp120 monomeric protein (HIV-1 CH848 transmitted-founder …, UniProt A0A1W6IPB2, strain, N-linked glycans). Put plainly: ELISA. (In general: An ELISA detects its analyte on a solid surface through an enzyme-linked reagent.)

B1: 2G12 IgG (antibody, V domains shown)
VH: EVQLVESGGGLVKAGGSLILSCGVSNFRISAHTMNWVRRVPGGGLEWVASISTSSTYRDYADAVKGRFTVSRDDLEDFVYLQMHKMRVEDTAIYYCARKGSDRLSDNDPFDAWGPGTVVTVSP
VL: DVVMTQSPSTLSASVGDTITITCRASQSIETWLAWYQQKPGKAPKLLIYKASTLKTGVPSRFSGSGSGTEFTLTISGLQFDDFATYHCQHYAGYSATFGQGTRVEIK
With B1, the binding result is “binds”.

Source of the values: paper doi:10.1101/2020.06.30.178921 (bioRxiv, 2020).
